The values that follow come from patent publication US20120316071A1 (published 2012).

Assay [1] deals with T1, rHuman CD44/Fc Chimera, CF (R&D Systems Cat#3660-CD) (human, UniProt P16070 21-220).
T1 construct: Bought Fc chimera; Fc part of the bought chimera not given
Put plainly: MSD Multispot ECL, antigen spotted on plate, Fab at 120 nM; blank spot 363.

Assay [2] concerns the target T2, rHuman P-Cadherin/Fc Chimera, CF (R&D Systems Cat#861-PC) (human, UniProt P22223 108-654).
T2 construct: Bought Fc chimera; Fc part of the bought chimera not given
The assay is described as above.

Assay [3] addresses T3, rHuman Notch-1/Fc Chimera, CF (R&D Systems Cat#3647-TK) (human, UniProt P46531 19-526).
T3 construct: Bought Fc chimera; Fc part of the bought chimera not given
The description is as above.

Assay [4] concerns the target T4, rHuman CD44/Fc Chimera, CF (R&D Systems Cat#3660-CD) (human, UniProt P16070 21-220).
T4 construct: Bought recombinant protein; Fc part of the bought chimera not given
Put plainly: Multispot ECL (MSD) assay, antigen spotted on plate, Fab at 0.0624 µM; blank spot 960.

Assay [5] addresses T5, rHuman ErbB2/Fc Chimera, CF (R&D Systems Cat#1129-ER) (human, UniProt P04626 23-652).
T5 construct: Bought recombinant protein; also called human epidermal growth factor 2 receptor (ErbB2); Fc part of the bought chimera not given
The assay is described as above.

For assay [6], the target named is T6, Recombinant Human DLL4 (R&D Systems Cat#1506-D4/CF) (human, UniProt Q9NR61 27-524).
T6 construct: Bought recombinant protein; also called delta-like protein 4; rHuman DLL4
The description is as above.

For assay [7], the target named is T7, rHuman EGF R/Fc Chimera, CF (R&D Systems Cat#344-ER) (human, UniProt P00533 25-645).
T7 construct: Bought recombinant protein; also called epidermal growth factor receptor (EGF R); Fc part of the bought chimera not given
Described as above.

Assay [8] addresses T8, rHuman Notch-1/Fc Chimera, CF (R&D Systems Cat#3647-TK) (human, UniProt P46531 19-526).
T8 construct: Bought recombinant protein; Fc part of the bought chimera not given
The assay is described as above.

For assay [9], the target named is T9, rHuman HGF R/c-MET/Fc Chimera, CF (R&D Systems Cat#358-MT/CF) (human, UniProt P08581 25-932).
T9 construct: Bought recombinant protein; also called HGF R/Fc; hepatocyte growth factor receptor (HGF R/c-Met); Fc part of the bought chimera not given
T9 sequence (P08581 25-932, change not shown): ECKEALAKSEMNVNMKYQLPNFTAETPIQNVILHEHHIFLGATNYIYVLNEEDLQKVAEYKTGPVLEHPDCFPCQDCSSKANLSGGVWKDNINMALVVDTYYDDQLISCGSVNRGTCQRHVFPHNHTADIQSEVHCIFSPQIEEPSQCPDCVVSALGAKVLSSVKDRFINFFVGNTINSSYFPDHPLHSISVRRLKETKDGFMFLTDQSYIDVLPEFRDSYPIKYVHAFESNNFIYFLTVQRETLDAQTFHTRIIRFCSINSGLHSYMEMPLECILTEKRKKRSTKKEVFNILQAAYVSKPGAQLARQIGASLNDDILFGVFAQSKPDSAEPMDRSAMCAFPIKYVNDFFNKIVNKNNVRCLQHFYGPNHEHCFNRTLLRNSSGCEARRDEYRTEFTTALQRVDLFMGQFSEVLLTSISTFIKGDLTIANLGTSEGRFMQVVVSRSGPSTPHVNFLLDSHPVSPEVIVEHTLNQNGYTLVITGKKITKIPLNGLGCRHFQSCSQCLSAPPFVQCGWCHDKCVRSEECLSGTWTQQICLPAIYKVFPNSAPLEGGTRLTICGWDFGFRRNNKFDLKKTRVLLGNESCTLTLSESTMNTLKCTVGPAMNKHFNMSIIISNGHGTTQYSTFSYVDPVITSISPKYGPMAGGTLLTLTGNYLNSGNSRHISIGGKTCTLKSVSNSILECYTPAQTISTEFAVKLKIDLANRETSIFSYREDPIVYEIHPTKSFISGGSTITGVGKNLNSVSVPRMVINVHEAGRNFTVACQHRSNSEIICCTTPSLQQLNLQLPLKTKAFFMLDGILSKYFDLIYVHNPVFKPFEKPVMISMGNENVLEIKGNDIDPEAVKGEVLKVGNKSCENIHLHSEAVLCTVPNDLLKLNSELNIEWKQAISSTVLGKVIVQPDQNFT
The assay is described as above.

The target in assay [10] is T10, rHuman IGF-1 sR, (IGF-1 sR), CF (R&D Systems Cat#391-GR) (human, UniProt P08069 31-932).
T10 construct: Bought recombinant soluble receptor; also called insulin-like growth factor-1 soluble receptor
The description is as above.

Assay [11] concerns the target T11, rHuman P-Cadherin/Fc Chimera, CF (R&D Systems Cat#861-PC) (human, UniProt P22223 108-654).
T11 construct: Bought recombinant protein; Fc part of the bought chimera not given
The description is as above.

In assay [12] the target is T12, rHuman Erythropoietin R/Fc Chimera, CF (R&D Systems Cat#963-ER) (human, UniProt P19235 25-250).
T12 construct: Bought recombinant protein; also called EPO R/Fc; Epo R; Fc part of the bought chimera not given
T12 sequence (looked up): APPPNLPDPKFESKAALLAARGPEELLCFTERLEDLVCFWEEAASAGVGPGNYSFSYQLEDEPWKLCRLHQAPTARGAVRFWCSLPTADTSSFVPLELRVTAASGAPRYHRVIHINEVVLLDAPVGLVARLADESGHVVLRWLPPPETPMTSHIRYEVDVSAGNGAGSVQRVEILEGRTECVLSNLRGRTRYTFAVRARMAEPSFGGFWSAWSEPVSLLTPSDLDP
The assay is described as above.

In assay [13] the target is T13, rHuman CD44/Fc Chimera, CF (R&D Systems Cat#3660-CD) (human, UniProt P16070 21-220).
T13 construct: Bought Fc chimera; Fc part of the bought chimera not given
Put plainly: Multispot ECL (MSD) titration; antigen spotted on plate; Fab 232.5 nM; blank spot 460.

The target of assay [14] is T14, rHuman ErbB2/Fc Chimera, CF (R&D Systems Cat#1129-ER) (human, UniProt P04626 23-652).
T14 construct: Bought Fc chimera; also called human epidermal growth factor 2 receptor; Fc part of the bought chimera not given
The assay is described as above.

For assay [15], the target named is T15, rHuman IGF-1 sR (IGF-1 sR), CF (R&D Systems Cat#391-GR) (human, UniProt P08069 31-932).
T15 construct: Bought soluble receptor; also called insulin-like growth factor-1 soluble receptor
Described as above.

Assay [16] addresses T16, rHuman Notch-1/Fc Chimera, CF (R&D Systems Cat#3647-TK) (human, UniProt P46531 19-526).
T16 construct: Bought Fc chimera; Fc part of the bought chimera not given
The assay is described as above.

In assay [17] the target is T17, rHuman Erythropoietin R/Fc Chimera, CF (R&D Systems Cat#963-ER) (human, UniProt P19235 25-250).
T17 construct: Bought Fc chimera; also called EPO R/Fc; EPO R; Fc part of the bought chimera not given
T17 sequence (looked up): T12 sequence (looked up)
Described as above.

Assay [18] deals with T18, rHuman P-Cadherin/Fc Chimera, CF (R&D Systems Cat#861-PC) (human, UniProt P22223 108-654).
T18 construct: Bought Fc chimera; Fc part of the bought chimera not given
The description is as above.

B1: Fab VH6-1_IGHD3-3*01_IGHJ4*01 & V4-3_IGLJ4*01 (Fab, V domains shown)
VH: QVQLQQSGPGLVKPSQTLSLTCAISGDSVSSNSAAWNWIRQSPSRGLEWLGRTYYRSKWYNDYAVSVKSRITINPDTSKNQFSLQLNSVTPEDTAVYYCAREYYDFWSGYYTDYFDYWGQGTLVTVSS
VL: QPVLTQPTSLSASPGASARLTCTLRSGINLGSYRIFWYQQKPESPPRYLLSYYSDSSKHQGSGVPSRFSGSKDASSNAGILVISGLQSEDEADYYCMIWHSSASFVFGGGTQLIIL
notes: Tested as a purified germline Fab made in E. coli; The VH was cloned into plasmid A (CH1 constant region, His6 and Flag tags) and the lambda VL into plasmid E (lambda CL)
As to B1, the results for the ECL signal in [1], in [2] and in assay [3] were 442, 450 and 472, respectively.

B2: Fab VH1-46_IGHD7-27*01_IGHJ2*01 & L6_IGKJ1*01 (Fab, V domains shown)
VH: QVQLVQSGAEVKKPGASVKVSCKASGYTFTSYYMHWVRQAPGQGLEWMGIINPSGGSTSYAQKFQGRVTMTRDTSTSTVYMELSSLRSEDTAVYYCARANWGYWYFDLWGRGTLVTVSS
VL: not shown
notes: Germline Fab made in E. coli; VH was cloned in Plasmid A (CH1 constant region, His6 and Flag tags) and the kappa VL in Plasmid C (kappa CL); Only the variable domains are tied to this Fab by name
Turning to B2, the ECL signal in assay [4] stood at 2110; in assay [5], 2150; in assay [6] it was 2580; in [7], 2420; in [8], 2350; in assay [9], 2450. The ECL signal in assay [10] came out at 2030; in assay [11], 4230; in assay [12] it was 2680.

B3: Fab VH1-46_IGHD6-13*01_IGHJ4*01 & O1_IGKJ1*01 (Fab, V domains shown)
VH: QVQLVQSGAEVKKPGASVKVSCKASGYTFTSYYMHWVRQAPGQGLEWMGIINPSGGSTSYAQKFQGRVTMTRDTSTSTVYMELSSLRSEDTAVYYCAREGYSSSWYDYFDYWGQGTLVTVSS
VL: DIVMTQTPLSLPVTPGEPASISCRSSQSLLDSDDGNTYLDWYLQKPGQSPQLLIYTLSYRASGVPDRFSGSGSGTDFTLKISRVEAEDVGVYYCMQRIEFPSWTFGQGTKVEIKR
notes: Germline library Fab expressed in E. coli; VH was cloned into Plasmid A (CH1 constant region, His6 and Flag tags); The kappa VL was cloned into Plasmid C (kappa CL)
As for B3, the ECL signal is 607 in assay [13]; 779 in [14]; 569 in [15]; 778 in assay [16]; 1470 in assay [17]; 655 in assay [18].
